Numbered stars: 1 amine (or outer) side, 2 acyl side, 3 side chain; on linkers, the order of the positions; unused ones are H or OH. Square brackets hold non-standard residues; d marks the D form. Side chains are listed from the residue outwards. Ends that are not written are not given here. * marks the point of attachment. C22 diacid = O=C(O)CCCCCCCCCCCCCCCCCCCCC(=O)*; C20 diacid = O=C(O)CCCCCCCCCCCCCCCCCCC(=O)*; γGlu = O=C(O)[C@H](CCC(=O)[*:2])N[*:1]; εLys = N[C@@H](CCCCN[*:1])C(=O)[*:2]; Trx = NC[C@H]1CC[C@H](C(=O)O)CC1; AEEA = NCCOCCOCC(=O)O; Aib = CC(C)(N)C(=O)O
B1: N{Alpha}([Aib8,Glu22,Arg26,Arg34]-GLP-1-(7-37)-peptidyl)-N{Epsilon}[(2S)-2-amino-6-[[(2S)-2-amino-6-[[(4S)-4-carboxy-4-[[4-[(19-carboxynonadecanoylamino)methyl] … (peptide)
peptide: H[Aib]EGTFTSDVSSYLEEQAAREFIAWLVRGRGK([εLys-εLys-γGlu-Trx-C20 diacid])GGSK([εLys-εLys-γGlu-Trx-C20 diacid])
notes: Double-acylated, C-terminally extended GLP-1 analogue made by SPPS
B2: N{Alpha}Aib8,Glu22,Arg26,Arg34]-GLP-1-(7-37)-peptidyl)-N{Epsilon}[2-[2-[2-[[2-[2-[2-[[(4S)-4-carboxy-4-[[4-[(21-carboxyhenicosanoylamino)methyl]cyclohexanecarbo … (peptide)
peptide: H[Aib]EGTFTSDVSSYLEEQAAREFIAWLVRGRGK([AEEA-AEEA-γGlu-Trx-C22 diacid])GGSK([AEEA-AEEA-γGlu-Trx-C22 diacid])
notes: as for B1

Tests used:
human GLP-1 receptor [1] = target: T1, human GLP-1 receptor (human, UniProt P43220 24-463); assay: competitive binding (SPA): displacement of 125I-GLP-1(7-36)NH2 from BHK cell membranes with human GLP-1 receptor; low HSA (max. 0.001% final)
T1 construct: whole, on cells
Description: (§1) For the receptor binding assay in the presence of low HSA (0.005%) 50 μl of the assay buffer was added to each well of an assay plate. […] For the receptor binding assay in the presence of high HSA (2%) 50 μl of the 8% albumin stock was added to each well of an assay plate. […] Cell membrane aliquots were thawed and diluted to their working concentration. Fifty μl were added to each well in the assay plate. […] WGA SPA beads were suspended in assay buffer at 20 mg/ml. The suspension was diluted to 10 mg/ml in assay buffer just prior to addition to the assay plate. Fifty μl were added to each well in the assay plate. […] A 25 μl aliquot was reserved for measuring total counts/well. […] The assay plate was incubated for 2 h at 30° C. […] The assay plate was centrifuged for 10 min. […] The assay plate was read in a Packard TopCount NXT instrument.

human GLP-1 receptor [2] = target: T1, human GLP-1 receptor; assay: competitive binding (SPA): displacement of 125I-GLP-1(7-36)NH2 from BHK cell membranes with human GLP-1 receptor; high HSA (2.0% final)
Description: as §1

human GLP-1 receptor [3] = target: T1, human GLP-1 receptor; assay: cell-based or functional assay

Binder | IC50 (human GLP-1 receptor [1]) [nM] | IC50 (human GLP-1 receptor [2]) [nM] | EC50 (pM), in vitro potency, CRE luciferase reporter gene assay in BHK cells expressing the human GLP-1 receptor (human GLP-1 receptor [3]) [pM]
B1 | 2.2 | 197 | 381
B2 | 1.6 | 21 | 101

Source: patent US20150011462A1 (Novo Nordisk, published 2015)
